B1: His6-SUMO-tagged SH3 to PDZ domains of Shank2 (R520-D727), WT [not stated (human or rat cDNA cloned)] / synthetic peptide of the complete PDZ ligand of GKAP (last 15 amino acids of GKAP/SAPAP1) [not stated] (parent complex)
chain 1: RKLYSAVPGRLFVAVKPYQPQVDGEIPLHRGDRVKVLSIGEGGFWEGSARGHIGWFPAECVEEVQCKPRDSQAETRADRSKKLFRHYTVGSYDSFDTSSDCIIEEKTVVLQKKDNEGFGFVLRGAKADTPIEEFTPTPAFPALQYLESVDEGGVAWQAGLRTGDFLIEVNNENVVKVGHRQVVNMIRQGGNHLVLKVVTVTRNLDPDD
chain 2: ADSIEIYIPEAQTRL

Variants of: B1
Assay: ITC; parent: 319 nM

Kd | Variant
0.91 µM | chain 1 S91Y
0.848 µM | chain 1 V198F
0.411 µM | chain 1 N171S

Variants of: B1
Assay: ITC; parent: 320 nM

Kd | Variant
22.5 µM | chain 1 G124R

Variants of: B1
Assay: ITC; parent: 319 nM
Remark: another data set of the same source

Kd | Variant
22 µM | chain 1 G124R

From paper PMC11371640, “Structural deficits in key domains of Shank2 lead to alterations in postsynaptic nanoclusters and to a neurodevelopmental disorder in humans” (Molecular Psychiatry, 2022)
